Reference: article PMC7753581 (The FASEB Journal, 2020)

What was measured:
[1] = biological target: HLA I molecule A*02:01, purified; test: radioligand binding
[2] = system: CD8 T cells of peptide‐expanded PBMCs from A*02:01‐donors; test: DimerX staining; assay type: cell-based, human; details: Figure 5A; peptide‐stimulated PBMCs from A*02:01‐subject #14; representative experiment

Substance | IC50 [1] | percentage of CD8 T cells recognizing DimerX‐peptides within the total of gated‐CD8 T cells [2]
HRVC_(1791-1806) peptide | 91 nM | 
NTSAGFPYV [HRVC1798‐1806] |  | 1.12%
